Laboratory results from the supplement of paper PMC10567573.

B1: TRAF3IP2 (parent)
chain: KQGSMNFRFIPVLFPNAKKEHVPT

Variants of: B1
Assay: protein stability index of a GFP-peptide fusion (GPS, HEK-293T) (PSI 1-6); higher = more stable
Conditions: c terminus: a fixed tail appended
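Further: lentivirally expressed fusions sorted by FACS into six bins by GFP to DsRed ratio, PSI derived from sequencing read proportions per bin multiplied by bin number.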

Protein stability index of substitutions, site by site:
L13: K 2.06; V 2.01; W 2.09; N 2.28; D 2.62; Y 1.82; Q 2.02; S 2.14; R 1.93; C 2.07; H 2.38; I 1.75; T 1.86; F 2.04; E 2.88; A 1.66; M 1.77; P 1.87; G 1.93
F9: N 3.56; S 3.2; M 2.69; D 3.99; P 3.22; Q 3.3; C 2.15; A 3.43; Y 2.5; I 2.06; G 3.17; V 2.77; E 3.94; W 2.31; L 2.44; R 2.84; K 3.41; T 3.66; H 3.38
N16: V 1.55; F 1.63; P 1.92; I 2.29; C 1.89; D 1.58; Q 1.75; E 1.85; L 1.66; T 1.7; Y 1.8; R 2.59; W 2; S 2.33; K 1.72; M 1.88; A 1.75; H 1.66; G 2.08
V12: M 1.86; F 2.14; N 2.84; R 2.49; I 2.14; W 2.06; A 2.31; C 2.35; D 2.17; Y 1.97; K 2.39; S 2.35; T 1.86; Q 2.4; G 1.96; L 2.12; E 2.76; H 2.39; P 2.33
R8: N 2.8; Y 2.09; V 2.02; W 2.44; Q 3.08; T 2.04; P 2.68; S 2.39
P15: Q 1.41; M 1.58; W 2.67; N 1.87; G 1.49; Y 2.04; L 2.43; H 1.87; S 1.75; C 1.7; R 1.92; D 2.05; I 2.17; V 2.56; T 2.54; F 2.2; A 1.66; K 1.52; E 2.14
I10: N 2.9; T 2.07; A 1.98; H 1.67; Y 2.29; G 2.76; L 2.23; M 2.23; D 3.37; Q 1.98; V 1.31; C 2.3; S 2.46; P 3.42; R 2.75; W 1.97; K 2.56; F 2.11; E 3.16
F14: R 1.8; L 1.68; N 2.06; Y 1.95; D 2.77; K 2.62; W 2.46; I 1.36; G 2.29; C 1.87; M 2.56; E 3.19; S 2.42; A 1.88; Q 2.71; T 2.76; V 2.3; P 2.71; H 2.12
P11: R 2.14; Q 1.85; E 1.45; H 2.14; N 1.7; I 3.73; C 3.83; M 2.98; Y 3.97; F 3.53; W 2.25; V 2.91; S 1.36; A 2.39; L 2.75; T 1.86; G 2.35; K 2.02; D 2.37
A17: C 1.97; F 1.64; H 1.92; G 2.18; D 2.32; I 1.8; E 2.47
